From the nanobody polyreactivity screen of Harvey et al. (2022)

Assay: yeast display, Sf9 membrane polyspecificity reagent, FACS + sequencing; frameworks hold sequencing errors
Method in brief: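 Synthetic nanobody libraries on Saccharomyces cerevisiae BJ5465 were galactose-induced for 36–48 hours, stained 1 hour at 4 °C with 10% biotinylated, detergent-solubilized Sf9 membrane reagent and enriched on streptavidin microbeads. FACS then separated cells into low and high (top ~1%) gates by anti-HA (expression) and streptavidin (reagent binding) fluorescence. Genes were colony-PCR amplified, MiSeq 2 × 250 sequenced and CDR-length filtered. A clone's polyreactivity label is that of its gate of origin.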

| Sequence | polyreactivity (PSR sort gate) |
| --- | --- |
| QVQLVESGGGLVQAGGSLRLSCAASGFTFGYYAMGWYRQAPGKERELVAAISSSGGRTYYADSVKGRFTISRDNAKNTVYLQMNSMKPEDTAVYYCAAVYIRYPIQYSLLRYDYWGQGTQVTVSA | high polyreactivity |
| LVQLVESGGGLVQAGGSLRLSCAASGRIFVGYAMGWFRQAPGKERELVAAISRRAGRTYYADSVKGRFTLSRDNAKNTVYLQMNSLKPEDTPVYYCIAPRYYPKAGFDYWGQGTQVTVSS | high polyreactivity |
| QVQLVESGGGLVQAGGRLRLSCAASGITFRYYAMGWYRQAPGKERELVAAITRSGTSTYYADSVKGRFTISRDNAKNTVYLQMNSLKPEDTAVYYCNAEYYHSSTGDDFDYWGQGTQVTVSS | low polyreactivity |
| QVQLVESGGGLVQAGGSLRLSCAASGRIFGYNGMGWYRQAPGKERELVAAITSGGRTYYADSVKGRFTISRDNAKNTVYLQMNSLKPEDTAVYYCAAYFYQRGYGYVGPYGYWGQGTQVTVSS | high polyreactivity |
| QVQLVESGGGLVQAGGILRISSDSSGSIFTFYAMGCYRQEPGKERELFAAISYGGGITYYADSVKGRFSISRDNAKNTVYLQMNSLKPEDTAVFYCAGDDGYYNLYFDYDYWGQGTQVTVSS | low polyreactivity |
| QVQLVESGGGLVQAGGSLRLSCAASGRSFRYYAMGWYRQAPGKERELVAAISVSGGTTYYADSVKGRFTISRDNAKNTVYLQMNSLKPEDTAVYYCNAYYLAEYDYWGQGTQVTVSS | high polyreactivity |
| QVQLVESGGGLVQAGGSLRLSCAASGSTFFYNAMGWYRQAPGKERELVAAITYRGGRTYYADSVKGRFTISRDIAKNTVYLQMKSLNPEDTSVYYCHAYPLYRVPDRLVVSDGNYWGQGTQVTVSS | low polyreactivity |
| QVQLVESGGGLVKAGGSLRLSSDASGSISKSYAMGWYRQAPGKERELVAVITSGGNTYYADSVKGRFTISRDNAKNTVYLQMNSLKPEDTAVYYCAAKSGRGRTMDYWGQGTQVTVSS | high polyreactivity |
| QVQLVESGGGLVQAGGSLRLSCAASGFIFVYNDMGWYRPAPGKERELVASISNGDNTNYADSVKGRFTISRDNAKNTVYLQMNSLKQEDTAVYYCAARGTIYVLGVPARPVPDGDYWGQGTQVTVSS | low polyreactivity |
| QVQLVESGGGLVQAGGSLRLSCAASGSTFTVNAMGWYRQAPGKERELVAAISYTDSITYYADSVKGRFTISRDNAKNTVYLQMNSLKPEDTAVYYCAVDYTVYFATYSWPYLSTHEYWGQGTQVTVSS | high polyreactivity |
| QVQLVESGGGLVQAGGSLRLSCAAYGGTFYRYAMGWYRQAPGKERELVAVISKRGGTTYYADSVKGRFTISRDNAKNTVYLQMNSLKPEDTAVYYCADRPYYWGQGTQVTVSS | high polyreactivity |
| QVQLVESGGGLVQAGGSLRLSCAASGNIFRPYTMGWYSQAPGKERQLVARISSGGSTNYADSVKGRFTISRDNAKNTVYLQMNSLKPEDTAVYYCAKRYGTVHSRYGYWGQGTQVTVSS | high polyreactivity |
| QVQLVESGGGLVQAGGSLRLSCAASGSIFTYYAMGWYRPAPGKERELVAAISSDGSTTYADSVKGRFTISRDNAKNTVYLQMNSLKPEDTAVYYCAASQFYFYYSPDGYDFWGQGTQVTVSS | low polyreactivity |
| QVQLVETGGGLVQAGGTLRLSCADSGSIYEDNAKGWYRQAPGKERELDAAITWSGDSTYYADSVKGRFTISRDTEKNTVYLQMNSLKPEDTAVYYCNTYRIFCYSRYYAGYDYWGQGTQVTVSS | low polyreactivity |
| QVQLVESGGGLVQAGGSLRLSCAASGLTFAYNTMGWYRQAPGKEREFVASISSSGGNTYYADAVKGRFTISRDNAKNTVYLQMNSLKPEDTAVYYCAAKKKYHYFASYKRFEYWGQGTQVTVSS | low polyreactivity |
| QVQLVESGGGLVQAGGSLRLICAASGITFTGYAMGWYRQAPGKERELVAAITRRGGRTYYADSVKGRFTISRDNAKNTVYLQMNSLKPEDTAVYYCARDNGSPYHYYYWGQGTQVTVSS | high polyreactivity |
| QVQLVESGGGLVQAGGSLRLSCAASGRIFTVYGMGWYRQAPGKERELVAAISWSGGGTYYADSVKGRFTISRDNAKNTVYLHMNSLKPEDTAVYYCNADRQYTWSLVFFSSDYDYWGQGTQVTVSS | low polyreactivity |
| QDQLVESGGGLVQAGGSLRLSCAASGSIFVSYTMGWYRQAPGKERELVAAITRSGGSTYYADSVKGRFTISRDNAKNTVYLQLNSLKPEDTAVYYCNATPANKYYRSTRGYAYNYWGQGTQVTVSS | low polyreactivity |
| QVQLVESAGGLVQAGGSLRLSCAASGRIFGYYAMGWYRQAPGKERELVARISRGGSTYYADSVKGRFTISRDNAMNTVYLQMTSLKPEDTGVYYCAATRSGYTSYTDDSWGQGTQVTVSS | high polyreactivity |
| QVQLVESGGGLFQEGGSLRLSCAASGRIFSYYAMGWYRQAPGKERELVAGISSGGRTNYADSVKGRFTISRDNAKNTVYLQMNSLKPEDTAVYYCIARSFSLYWAYNYWGQGTQVTVSL | high polyreactivity |
| QVQLVESGGGLVQAGGSLRLSCAASGFTFRWYAMGSYRQAPGKERELVAAISSSGGSTYYADSVKGRFTISRDNAKNTVYLQMNSLKPEDTAVYYCAAASLRPYQRAYGYEYWGQGTQVTVSS | high polyreactivity |
| QVQLVESGGGLDQAGGSLRLSCAASGSTFYYYAMGWYRQAPGKERELVATISSGSSTNYADSVKGRFTISRDNAKNTVYLQMNCLKPEDTAVYYCAADRWYITLSIDATISYDYWGQGTQVTVSS | low polyreactivity |

| Sequence | polyreactivity (PSR sort gate) |
| --- | --- |
| QVQLVESGGGLVQAGGSLRLSCAASVFTIPRYAMGWYRQAPGKETELFAAITSGGSTYYADSVKGRFTISRDNAKNTVYLQMNSLKPEDTAVYYWASRAVWSSWGSRYDSWGHGTQVTVSS | high polyreactivity |
| QVQLVESGGGLVQAGGSLRLSCAASGSTFRYYAMGWYRQAPGKERELVAAITFDGGTTSYADSVKGRFTISRDNAKNTVYLQMNSLKPEDTAVYYCAREGRTYWSKSISPYWRYGYWGQGTQVTVSS | high polyreactivity |
| QVQLVESGRGLVQAGGSLRLSCAASGFTFPNYAMGWYRQAPGKERELVASITRRAGSTNYADSVKGRFTISRDNAKNTVYLQMNSLKPEDTAVYYCNTVVLRYLYNYWGQGTQVTVSS | high polyreactivity |
| QVQLVESGGGLVQAGGSLRLSCAASGSIFGEYAMGWYRQAPGKERELVATIRQSGDSTYYAVSVKGRFTISRDTAKNTVYLQMNSLKPEDTAVYYCAADLWLYDYYSEYDYWGPGTQVTVSS | low polyreactivity |
| QVQHVESVGRLVQAGGSLRLSCAASGFTFKYYAMGWYRQAPGKERELVAVISSSGGSTYYADSVKGRFTISRDNAKNTVYLQMNSLKPEDTAVYYCAAELVYRYFVKDADDYWGQGTQVTVSS | low polyreactivity |
| QVQLVESGGGLVQAGGSLRLSCAASGRIFKINAMGWYRQAPGKERELVAAITRSGGTTYYADSVMGRFTISRDHAKNTVYLQMNSLKPEDTAVYYCAARVVQYPYYYWGQGTQVTVSS | high polyreactivity |
| QVQLVESGGGLVQARGSLRLSCAASGFTFERYTMGWYRQAPGKERELVATISRRSGRTSYADSVKGRFTISRDNEMNSVYLQMNSLKPEDTAVYYCAVDDAYPDRYDYWGQGPQVTVSS | high polyreactivity |
| QVHLVESGGGLVQAGGSLRLSCAASGRTFFRYAMGWYTQAPGKERELVAAITRSGGSTYYADSVKGRFTISRDNAKNTVYLEMNSLKPEDTAVYYCAAPREAYSRGYDSWGQGTQVTVSS | high polyreactivity |
| QVQLVESGGGLVQAGGSLRLTCAASGLIFARNAMGWYRQAPGKDRELVAAISSSGNTYADSVKGRFTISRDNAKNTVYLHMNSLKPEDTAVYYCNAVRRIRVTSTYDYWGQGTQVTVSS | high polyreactivity |
| QVQLVESGGGLVQAGGSLRLSCAASGRIFRRYAMGWYRQAPGKERELVAAITRSGGSTYYADSVKGRFTISRDNAKNTVYLQMNSLKPEDTAVYYCAARQVGRYYYLSRYYYWGQGTQVTVSS | high polyreactivity |
| QVQLVESGGGVVQSGGSLRLSCAASGRTFNHYAMGWYRQAPGKERELVAGITISGGSTYYADSVKGRFTISRDNAKNTVYLQMNSLKPEDTAVYYCNAVYDYYRQSKWTMDYWGQGTQVTVSS | low polyreactivity |
| QVQLVESGGGLVQAGGSLRLSCAASGITFSLYAMGWYRQAPGKERELVAAITRSGGSTYYADSVKGRFTISRDNAKNTVYLQMNSLKPEDTAVYYCAAKRPGVRRYYYWGQGTQVTVSS | high polyreactivity |
| QVQLVESGGGLVQAGGSLRLSCAASGSIFYLYAMGWYRQAPGKEREFVAAITSSSGSTHYADSVKGRFTISRDNAKNTVYYQMNSLKPEDTAVYYCAKDYGPWTYDYWGQGTQVTVSS | low polyreactivity |
| QVQLVESGGGLVQAGGSLRLSCAASGYIFKWYAMGWYIQAPGKERELVAAITWSGDTTYYADSVKGRFTISRDNAQNTVYLQMNSLKPVDTAVYYCAVERDDQDYVYWGQGTQVTVSS | low polyreactivity |
| QVQLVESGGGLVQAGGSLRLSCAASGRIFQLYTMGWYRQAPGKERELVAAITSGTSTSYADSVKGRFTISRDNAKNTVYLQMNSLKPEDTAVYYCNKGSVSYSSVFVPYESDYWGQGTQVTVSS | low polyreactivity |
| QVQLVESGGGLVQAGGSLRLSCAASGSIFGNNAMGWYRQAPGKERELVAAISSGGSTNYADSVKGRFTISRDNAKNTVYLQMNSLKPEDTAVYYCATYYFYPSWYLLYGEYNYWGQGTQVTVSS | low polyreactivity |
| QVQHVESGGGLVQAGGSLRLSCAASGSTFSYKVMGWYRQAPGKERELVAAISQSGGSTYYADSVKGRFTISRDNAKNTVYLHMNSLKPEDTAVYYCAAERRYYYGWGSFDYWGQGTQVTVSS | low polyreactivity |
| QVLLVESGGGLVQAGGSLRLICAASGLIFFYYDMGWYRQAPGKERELVAAISQRGGSTYYADSLKGRFTISRDNEKNTVYLQMNSLKPEETAVYYCNVRSPASYRRYYWGQGTQVTVSS | high polyreactivity |
| QVQLVESGGGLVQAGGSLRLSCAASGFIFRGYAMGWYRQAPGKERELVAAISRSGGSTYYADSVKGRFTISRDNAKNTVYLQMNSLKPEDTAVYYCAARSFYSKGYDYWGQGTQVTVSS | high polyreactivity |
| QVQLVESGGGLVQAGGSLRLSCAASGFIFYTYAMGWYRQAPGKERELVAAISWRGGRTYYADSVKGRFTISRDNAKNTVYLQMNSLKPEDTAVYYCNAVTSSGEYDYWGQGTQVTVSS | high polyreactivity |
| QVQLVESGGGLVQAGGSLRLSCAASGRIFYGYAMGWYRQAPGKERELVAAISWRGGRTYYADSVKGRFTISRDNAKNTVYLQMNSLKPEDTAVYYCAVRWPSARIPVKLDYWGQGTQVTVSS | high polyreactivity |
